Test results reported in PMC10710473, “The DNA glycosylase NEIL2 is protective during SARS-CoV-2 infection”.

Tests used:
[1] = target: T1, NEIL2 (rNEIL2) (UniProt Q969S2 1-332); assay: EMSA; 1 nM RNA, compact band at 75 nM NEIL2; Kd not measurable (aggregates); conditions: protein: recombinant; tags: C-terminal 6xHis; chain copies: 12; label: 32P end label; folded; partly aggregates
T1 sequence: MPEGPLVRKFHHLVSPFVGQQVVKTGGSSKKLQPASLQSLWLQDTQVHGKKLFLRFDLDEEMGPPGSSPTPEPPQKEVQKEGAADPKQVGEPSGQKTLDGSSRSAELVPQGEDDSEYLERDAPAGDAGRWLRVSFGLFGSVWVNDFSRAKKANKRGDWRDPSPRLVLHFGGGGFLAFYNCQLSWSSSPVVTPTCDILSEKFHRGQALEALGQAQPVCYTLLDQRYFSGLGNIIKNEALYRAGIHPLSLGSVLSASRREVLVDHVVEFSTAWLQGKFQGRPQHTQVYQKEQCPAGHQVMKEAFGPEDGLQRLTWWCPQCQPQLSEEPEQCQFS

[2] = target: T1, NEIL2 (rNEIL2); assay: EMSA; conditions: protein: recombinant; tags: C-terminal 6xHis; chain copies: 12; label: 32P end label; natively folded, minor misfolded band
[3] = target: T1, NEIL2 (rNEIL2); assay: EMSA; 1 nM RNA, no yeast tRNA; Hill 2.428; conditions: protein: recombinant; tags: C-terminal 6xHis; label: 32P end label

B1: CoV-2 3'-UTR RNA (full length, 200 nt) (structured_RNA)
RNA: CAAUCUUUAAUCAGUGUGUAACAUUAGGGAGGACUUGAAAGAGCCACCACAUUUUCACCGAGGCCACGCGGAGUACGAUCGAGUGUACAGUGAACAAUGCUAGGGAGAGCUGCCUAUAUGGAAGAGCCCUAAUGUGUAAAAUUAAUUUUAGUAGUGCUAUCCCCAUGUGAUUUUAAUAGCUUCUUAGGAGAAUGACAAAA
B1: binds [1].

B2: CoV-2 5'-UTR RNA (full length, 297 nt) (structured_RNA)
RNA: AUUAAAGGUUUAUACCUUCCCAGGUAACAAACCAACCAACUUUCGAUCUCUUGUAGAUCUGUUCUCUAAACGAACUUUAAAAUCUGUGUGGCUGUCACUCGGCUGCAUGCUUAGUGCACUCACGCAGUAUAAUUAAUAACUAAUUACUGUCGUUGACAGGACACGAGUAACUCGUCUAUCUUCUGCAGGCUGCUUACGGUUUCGUCCGUGUUGCAGCCGAUCAUCAGCACAUCUAGGUUUUGUCCGGGUGUGACCGAAAGGUAAGAUGGAGAGCCUUGUCCCUGGUUUCAACGAGAA
B2 was tested, and the Kd [2] was 44.2 nM.

B3: CoV-2 3'-UTR ZnF-site (38-mer) (mixed)
RNA: UCCCCAUGUGAUUUUAAUAGCUUCUUAGGAGAAUGACA
modifications: DNA bases may be present
With B3 the Kd [3] was 77.2 nM.
